Common to all, as to assay: ELISA
(An ELISA detects its analyte on a solid surface through an enzyme-linked reagent.)

Experiment [1] addresses T1, recombinant human Axl-Fc protein (R and D Systems, cat N° 154-AL) (UniProt P30530 26-451).
The target in experiment [2] is T1, recombinant human Axl-Fc protein (R and …). The source holds these as a separate data set.
The target is the same in experiment [3]. This is another data set of the same source.

The values that follow come from patent publication US20160046725A1 (published 2016).

As a reminder, the EC50 is the concentration giving half of the maximal effect.

Like-named read-outs stand apart in the source and are kept apart here.

T1 sequence (P30530 26-451 D266N): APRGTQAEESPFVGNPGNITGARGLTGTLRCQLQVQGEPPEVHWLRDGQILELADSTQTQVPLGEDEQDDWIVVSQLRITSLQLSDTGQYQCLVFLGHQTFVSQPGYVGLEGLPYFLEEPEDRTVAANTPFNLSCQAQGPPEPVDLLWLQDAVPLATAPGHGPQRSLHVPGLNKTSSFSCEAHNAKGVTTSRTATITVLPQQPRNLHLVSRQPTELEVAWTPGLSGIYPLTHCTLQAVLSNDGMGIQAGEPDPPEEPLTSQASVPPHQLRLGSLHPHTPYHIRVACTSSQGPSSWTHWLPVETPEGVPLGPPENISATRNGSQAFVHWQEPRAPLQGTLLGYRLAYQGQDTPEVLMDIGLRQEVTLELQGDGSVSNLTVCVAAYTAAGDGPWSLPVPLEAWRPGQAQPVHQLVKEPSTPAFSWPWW

B1: 110D7 anti-Axl monoclonal antibody (antibody, V domains shown)
VH: EVKLVESGGGLVQPGGSLKLSCATSGFTFSDYYMYWVRQTPEKRLEWVAYISNGGGSTYYPDTVKGRFTMSRDNAKNTLYLQMSRLKSEDTAMYYCARLSFYAMDYWGQGTSVTVSS
VL: DIVMTQSHKFMSTSVGDRVSITCKASQDVTTAVAWYQQKPGQSPKLLIYWASTRHTGVPDRFTGSGSGTDYTLTISSVQAEDLALYYCQQHYRIPFTFGSGTKLEIK
As to B1, in experiment [1], the EC50 was 1.35 nM.

B2: 1024G11 anti-Axl monoclonal antibody (antibody, V domains shown)
VH: EVKLVESGGGLVQPGGSLNLSCAASGFTFSSYSMSWVRQTPEKRLEWVAFISNGGGRTYYPDTVKGRFTFSRDNARNTLYLQMSSLNSEDTAMYFCARGTTESYYAMDYWGQGTSVTVSS
VL: DIVMTQSHKFMSTSVGDRVSITCKASQDVITAVAWYQQKPGQSPKLLIYWASTRHTGVPDRFTGSGSGTDYTLTISSVQAEDLALYFCQQHLSTPLTFGAGTKLELK
As for B2, the EC50 in experiment [2] was determined as 3.57 nM.

B3: 1003A2 anti-Axl monoclonal antibody (antibody, V domains shown)
VH: EVKLVESGGGLVQPGGSLKLSCAASGFTFNSYSMSWVRQTPEKRLEWVAYISNGGGRTYYPDTIKGRFTLSRDNDRNTLYLQMSSLKSEDTAMYYCARGTTESYYALDYWGQGTSVTVSS
VL: DIVMTQSHKFMSTSLGDRISITCKASQDVITAVAWYQQKPGQSPKLLIYWASTRHTGVPDRFTGSGSGTDYNLTISSVQAEDLALYYCQQHFSTPLTFGAGTKLELK
For the molecule B3, in experiment [3], the EC50 was 2.35 nM.
